Experiments:
[1] = molecular target: T1, human TIGIT expressed on cells (CHO-K1 transfectants; Jurkat over-expressing human TIGIT) (human, UniProt Q495A1 25-244); assay: cell-based or functional assay
T1 sequence: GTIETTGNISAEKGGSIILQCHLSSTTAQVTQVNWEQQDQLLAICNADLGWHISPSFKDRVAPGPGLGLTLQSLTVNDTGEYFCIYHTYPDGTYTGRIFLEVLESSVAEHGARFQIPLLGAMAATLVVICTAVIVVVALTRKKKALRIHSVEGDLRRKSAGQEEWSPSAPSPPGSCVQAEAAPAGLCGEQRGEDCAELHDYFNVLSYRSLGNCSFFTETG

[2] = molecular target: T2, human TIGIT-His protein (extracellular domain of human TIGIT fused to His tag) (human, UniProt Q495A1 25-141); assay: SPR, Biacore T200; antibody captured on anti-mouse IgG, human TIGIT-His as analyte; 1:1 Langmuir fit
T2 construct: also called hTIGIT-His; hTIGIT-HIS
T2 sequence: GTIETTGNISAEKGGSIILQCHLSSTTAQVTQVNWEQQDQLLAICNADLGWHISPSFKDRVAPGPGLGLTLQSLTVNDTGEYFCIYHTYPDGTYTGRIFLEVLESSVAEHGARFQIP
Description: The kinetic binding activity of anti-human TIGIT antibodies 14D7 and 26B10 (made as described in Example 1) and of commercial antibody MBSA43 was measured by surface plasmon resonance using a Biacore T200 system (Biacore, GE Healthcare, Piscataway, N.J.). […] Mouse anti-human TIGIT clones, 14D7, 26B10 and MBSA43, were each injected over the immobilized anti-mouse surfaces at 1 μg/mL for a capture level of 40 RU. HBS-EP+ buffer (BR-1006-69) was used as the running buffer with a flow rate of 30 μL/min. Varying concentrations of human TIGIT-His protein, ranging from 0.29 nM to 40 nM, at a flow rate of 45 μL/min were injected over the antibody surfaces. Following each Mouse anti-human TIGIT injection cycle, the Series S CM5 chip surface was regenerated using one three-minute injection of 10 mM Glycine pH 1.7 at a flow rate of 10 μL/min.
Background subtraction binding sensorgrams were used for analyzing the rate constant of association (kₐ) and dissociation (kd), and the equilibrium dissociation constant KD. The resulting data sets were fitted with a 1:1 Langmuir Binding Model using the Biacore T200 evaluation software (version 2.0). Table 3 summarizes the affinities for the anti-human TIGIT antibodies to human TIGIT-His protein.

[3] = molecular target: T1, human TIGIT expressed on cells (CHO-K1 …); assay: cell-based ELISA on CHO cells expressing human TIGIT (panel 'Binding to CHO-human TIGIT Cells')
[4] = molecular target: T3, cynomolgous/rhesus TIGIT expressed on CHO-K1 cells (cynomolgous monkey / rhesus monkey); assay: cell-based ELISA on CHO cells expressing rhesus TIGIT (panel 'Binding to CHO-rhesus TIGIT Cells')
T3 construct: also called cyno/rhesus TIGIT; cyno/rhesus TIGIT-CHOK1 cells
T3 sequence (chain, as listed by the source): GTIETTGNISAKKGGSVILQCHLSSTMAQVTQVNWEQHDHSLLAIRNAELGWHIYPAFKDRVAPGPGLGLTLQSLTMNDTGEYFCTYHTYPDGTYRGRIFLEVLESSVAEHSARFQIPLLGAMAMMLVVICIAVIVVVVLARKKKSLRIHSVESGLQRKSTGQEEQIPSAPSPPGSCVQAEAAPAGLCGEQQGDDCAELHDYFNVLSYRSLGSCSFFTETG

[5] = molecular target: T1, human TIGIT expressed on cells (CHO-K1 …); assay: cell-based ELISA blocking assay: binding of human CD155-huFc to CHO-hTIGIT cells in the presence of titrated antibody

B1: mouse anti-human TIGIT antibody 26B10 (clone MEB125.26B10) (antibody, V domains shown)
VH: EVQLQQSGPELVKPGASVKISCKTSGYTFTEFTMHWVKQSHGKSLEWIGGLKPDNGGISYNQKFKGRATLAVDKSSNTAYMELRSLTSEDSAVYYCARGAYYRYDADYWGQGTTLTVSS
VL: DIVLTQSHKFMSTSVGDRVSITCKASQDVKTAVAWYQQKSGQSPKLLIYSASYRNTGVPDRFTGSGSGTDFTFTIDSVQAEDLAVYFCQQHYSTPFTFGTGTKLELK
notes: Mouse IgG1/kappa; also called 26B10 (mIgG1/K)
- EC50, rescue of IL-2 in hTIGIT-Jurkat / THP-1 co-culture with CD155-Fc or CD112-Fc [1]: 0.19 µg/mL
- Kd [2]: 0.14 nM
- EC50 (read off the curve) [3]: ~0.05 ng/mL
- EC50 (read off the curve) [4]: ~0.04 ng/mL
- IC50 (read off the curve) [5]: ~50 µg/mL

B2: mouse anti-human TIGIT antibody 14D7 (clone MEB125.14D7) (antibody, V domains shown)
VH: EVKLEESGGGLVQPGGSMKLSCVASGFTFSGAWMDWVRQSPEKGLEWVAEIRTKVNNHATNYGESVKGRFTISRDDSKSSVYLQMNNLRAEDSGIYYCRGALYDGFYFDYWGQGTTLTVSS
VL: QIVLTQSPAIMSASPGEKVNLTCSASSSVSSGYLYWYQQKPGSSPKLWIYGTSTLASGVPARFSGSGSGTSYSLTISNMEAEDAASYFCHQWSSFPYTFGGGTKLEMK
notes: Mouse IgG1/kappa; also called 14D7 (mIgG1/K); MEB125.14D7.C1.C1
- EC50, rescue of IL-2 in hTIGIT-Jurkat / THP-1 co-culture with CD155-Fc or CD112-Fc [1]: 0.17 µg/mL
- Kd [2]: 0.0046 nM
- EC50 (read off the curve) [3]: ~0.06 ng/mL
- EC50 (read off the curve) [4]: ~0.06 ng/mL
- IC50 (read off the curve) [5]: ~80 µg/mL

Reference: patent US20180371083A1 (Merck Sharp & Dohme, published 2018)
